Test system: CCCC(=O)Oc1ccc([N+](=O)[O-])cc1
Assay: purified protein
Conditions: 50 mM Tris-HCl pH 8, 10 μM enzyme, no α-CD

For EstG (Caulobacter vibrioides NA1000), the Km was 11.2 mM.
